{"source": "the supplement of paper PMC12042874", "note": "± gives the uncertainty stated by the source.", "data": [{"experiment": "amyloid nucleation score (Sup35N fusion, yeast selection) (log enrichment); library NNK2; higher = more nucleation; inactive = no reads after selection", "how_it_was_run": "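DiMSum was used to calculate nucleation scores as log enrichment of output over input reads, centred on the mode score of non-aggregating sequences. Sequences with fewer than 100 input reads were not scored. Input and output came from Illumina sequencing of plasmid inserts in psi-negative yeast expressing peptides of 20 random codons fused to Sup35N, induced 24 hours with 100 μM copper sulfate and then grown 7 days at 30°C on medium lacking adenine and uracil.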", "values": [{"substance": "SLYLSWYDIFLMYGCWNVVR", "amyloid nucleation score": "0.638 ± 0.37"}, {"substance": "RISNVWENTFTLSAGSWGVR", "amyloid nucleation score": "1.38 ± 0.22"}, {"substance": "SSLWSGPKVIQDY", "amyloid nucleation score": "-0.122 ± 0.28"}, {"substance": "RFNVLRIGPLSHLQGWEHPT", "amyloid nucleation score": "-0.632 ± 0.63"}, {"substance": "TICFIFHSFRLFRIDAY", "amyloid nucleation score": "4.54 ± 0.098"}, {"substance": "TIILMGYLFWICRQSVR", "amyloid nucleation score": "-0.449 ± 0.38"}, {"substance": "CMGFSSLFFQGWVVIDCLW", "amyloid nucleation score": "-1.1 ± 0.76"}, {"substance": "TGCRVGHCIYVYVSEVSSNP", "amyloid nucleation score": "0.903 ± 0.34"}, {"substance": "DGVSVPSCRLKRKAVIAGWL", "amyloid nucleation score": "0.662 ± 0.4"}, {"substance": "IYCLATVMDMICVYGWICAW", "amyloid nucleation score": "0.049 ± 0.34"}, {"substance": "SIFVTYSLRTYINYK", "amyloid nucleation score": "5.95 ± 0.062"}, {"substance": "IMYLLGKGLWTVAVYPSRYP", "amyloid nucleation score": "-0.806 ± 0.61"}, {"substance": "SYFSCCLFFRAFSTFFGVIP", "amyloid nucleation score": "3.33 ± 0.11"}, {"substance": "GNGLVMLKTVHLWVLRDVLG", "amyloid nucleation score": "0.839 ± 0.24"}, {"substance": "IIPFRRSTVRLVRCLWISGL", "amyloid nucleation score": "1.13 ± 0.31"}, {"substance": "CEEFMKFFAGYQTHVLVFSR", "amyloid nucleation score": "inactive"}, {"substance": "RFGSLVFFCTGFERSWHTSA", "amyloid nucleation score": "0.684 ± 0.44"}, {"substance": "KTCRFLCA", "amyloid nucleation score": "0.176 ± 0.64"}, {"substance": "SDVYLTICHFFGHNLKVLPR", "amyloid nucleation score": "1.38 ± 0.26"}, {"substance": "ITAFTNRVKFWS", "amyloid nucleation score": "0.132 ± 0.36"}, {"substance": "ITLTLTVCTGLCWKYGRRMW", "amyloid nucleation score": "4.49 ± 0.071"}, {"substance": "VLMKGRDPSVSGLKIEYLGN", "amyloid nucleation score": "0.193 ± 0.19"}, {"substance": "TRSDMLVLLCIIMCFSYSYP", "amyloid nucleation score": "6.31 ± 0.09"}, {"substance": "WWFLKLDGRLPKLWAFLTMG", "amyloid nucleation score": "-0.22 ± 0.23"}, {"substance": "SYDSPPSEHLVPVAQSISVP", "amyloid nucleation score": "1.17 ± 0.44"}, {"substance": "VSVDGKLRFRPT", "amyloid nucleation score": "0.313 ± 0.45"}, {"substance": "LLNRSRSL", "amyloid nucleation score": "-0.723 ± 0.45"}, {"substance": "LQANWNDGPVGSSICAACSL", "amyloid nucleation score": "-0.746 ± 0.76"}, {"substance": "SNGCQTRADGLTECDICKPS", "amyloid nucleation score": "0.33 ± 0.24"}, {"substance": "SACIIVN", "amyloid nucleation score": "-0.012 ± 1.1"}, {"substance": "VFSNWVNVVWS", "amyloid nucleation score": "5.172 ± 0.039"}, {"substance": "PFLAFRGVWNFGL", "amyloid nucleation score": "5.1 ± 0.068"}, {"substance": "GRLLFAWLYLCDYGGYIMRV", "amyloid nucleation score": "-0.081 ± 1.1"}, {"substance": "AVDFKQDNHKYVNSLTDMGA", "amyloid nucleation score": "0.034 ± 1.1"}, {"substance": "SWGSVRNRMCMSGGRKSSDA", "amyloid nucleation score": "inactive"}, {"substance": "CIFYFMILFSGDIKCLNKPL", "amyloid nucleation score": "inactive"}, {"substance": "FHPVWSLRKLFDCPDWTLAR", "amyloid nucleation score": "1.23 ± 0.12"}, {"substance": "SIILLDYCPRRNSSTIALRH", "amyloid nucleation score": "-0.118 ± 0.43"}, {"substance": "YYSLY", "amyloid nucleation score": "-0.904 ± 0.36"}, {"substance": "NRVLSFPRWGAIYVYTMTEF", "amyloid nucleation score": "-0.892 ± 1.1"}, {"substance": "WLVTAMSMLVCLPGYESLYW", "amyloid nucleation score": "1.98 ± 0.21"}, {"substance": "LSHKAEYLCVFSWACRIMGL", "amyloid nucleation score": "0.155 ± 0.42"}, {"substance": "PKRFVLGY", "amyloid nucleation score": "-1.55 ± 0.62"}, {"substance": "FVSEINVTSGD", "amyloid nucleation score": "0.547 ± 0.42"}, {"substance": "LNWTTGFSDSAPVICPDTMH", "amyloid nucleation score": "-1.56 ± 1.1"}, {"substance": "LKLFNGVRPKNGM", "amyloid nucleation score": "-1.6 ± 0.75"}, {"substance": "GSNCIEVFRGWVKFGMDCFW", "amyloid nucleation score": "inactive"}, {"substance": "NKMTF", "amyloid nucleation score": "0.502 ± 0.44"}, {"substance": "MLLFSLWGNYAGQVPWDRVG", "amyloid nucleation score": "-0.513 ± 0.48"}, {"substance": "LPFFKIMVRSSYCCNYQG", "amyloid nucleation score": "2.29 ± 0.065"}, {"substance": "ASFMSISVYND", "amyloid nucleation score": "-0.32 ± 0.63"}, {"substance": "DKANTRGGLRCYKMHQFAFV", "amyloid nucleation score": "1.15 ± 0.21"}, {"substance": "IFCRIDYIYVYLHHVYVTVQ", "amyloid nucleation score": "5.228 ± 0.036"}, {"substance": "LVGDRNDVLPVFVRSRRRVP", "amyloid nucleation score": "0.53 ± 0.56"}, {"substance": "DPAELQ", "amyloid nucleation score": "-0.256 ± 0.79"}, {"substance": "PHRKV", "amyloid nucleation score": "-0.536 ± 0.76"}, {"substance": "VSAELWIQSSVTSAYIIWQL", "amyloid nucleation score": "0.98 ± 0.81"}, {"substance": "PGILRTFVETEYCITI", "amyloid nucleation score": "inactive"}, {"substance": "SGDLMYSGRTSPMPAAQKFV", "amyloid nucleation score": "-0.393 ± 1.1"}, {"substance": "VTSGGLEWSRD", "amyloid nucleation score": "3.11 ± 0.05"}, {"substance": "SMRTG", "amyloid nucleation score": "0.448 ± 0.23"}, {"substance": "PRVGRRGSLRKCPWLLWYVL", "amyloid nucleation score": "0.052 ± 0.45"}, {"substance": "LFMLYCFHLQDMKRVQICVH", "amyloid nucleation score": "0.188 ± 0.19"}, {"substance": "TNRGSQNGLMFFDRSWKGYG", "amyloid nucleation score": "-0.467 ± 0.5"}, {"substance": "YSLNWVQWEWELVCKWQGSL", "amyloid nucleation score": "0.143 ± 0.35"}, {"substance": "FILQQAYGDWFTVDSNSCIM", "amyloid nucleation score": "-1.64 ± 1.1"}, {"substance": "FYSFLINVPQCPER", "amyloid nucleation score": "0.636 ± 0.81"}, {"substance": "QYFFNMMLMMDMLSLGGLSY", "amyloid nucleation score": "-0.063 ± 0.45"}, {"substance": "LLLIADYMSLVCCRAGVRDV", "amyloid nucleation score": "0.215 ± 0.42"}, {"substance": "YNMMLSVWDSYVLLVECVME", "amyloid nucleation score": "-0.801 ± 0.31"}, {"substance": "WCCPPHGRQP", "amyloid nucleation score": "0.876 ± 0.43"}, {"substance": "KRVFKLSESTTRVIMWGRYS", "amyloid nucleation score": "inactive"}, {"substance": "RKVLLVGCCPLVLKIVFCSV", "amyloid nucleation score": "7.734 ± 0.048"}, {"substance": "IVDKVGHRVYEFVIYLTEDG", "amyloid nucleation score": "inactive"}, {"substance": "TSYKVVLVTYRT", "amyloid nucleation score": "5.81 ± 0.074"}, {"substance": "VVKYFCDHI", "amyloid nucleation score": "4.5 ± 0.07"}, {"substance": "WYKRVVFPMP", "amyloid nucleation score": "-0.442 ± 1"}, {"substance": "SLYCF", "amyloid nucleation score": "inactive"}, {"substance": "CLYPLSVDVVSFHYCTTCCE", "amyloid nucleation score": "0.141 ± 0.33"}, {"substance": "YNKLGCTARFTRAMWTFCGV", "amyloid nucleation score": "0.066 ± 1"}, {"substance": "FWVPSLSTYLSFFGKFRDWA", "amyloid nucleation score": "-0.347 ± 0.5"}, {"substance": "PTSNLSWVT", "amyloid nucleation score": "1.71 ± 0.17"}, {"substance": "EEKDQRLISDSWGMF", "amyloid nucleation score": "-0.013 ± 0.56"}, {"substance": "QNLASIDLDYFFSEYYPLLA", "amyloid nucleation score": "-1.37 ± 0.42"}, {"substance": "SEVHSWANGKVLTLYSRMWL", "amyloid nucleation score": "0.885 ± 0.28"}]}]}
